Key:
Assay type in all cases: cell-based
L363 cells = test: JNG assay, co-culture with L363 cells; settings: co-culture with L363
Outline: (§1)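 Read-out is NFAT-driven GFP measured by flow cytometry after ~4–18 h co-culture of SAR-expressing JNG cells with target cells (E:T about 1:2). SARs were introduced by lentiviral spinfection and selected with puromycin or blasticidin when possible; scores (+/- to 5+ ≈ 5–50% GFP+) are relative to parental JNG cells.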

Nalm6 cells = test: JNG assay, co-culture with Nalm6 cells; settings: co-culture with Nalm6
Protocol: Cellular supernatant is collected and assayed for the induction of cytokines (e.g., IL2).
JNG (Jurkat cells expressing EGFP under an NFAT promoter) were infected with lentiviral vectors encoding different single chain and multi-chain SARs by spinfection in the presence of 8 µg/ml of Polybrene® (Sigma, Catalog no. H9268). The Jurkat-NFAT-GFP cells are engineered in such a way that the IL-2 promoter, which carries NFAT binding sites, is cloned upstream of the GFP gene. These cells have been used to study signaling via TCR and CAR. The different SARs were stably expressed in Jurkat NFAT-GFP cells by lentiviral mediated gene transfer, followed by selection with puromycin or blasticidin. No drug selection was used in case the construct lacked an antibiotic resistance gene. The SAR-expressing Jurkat-NFAT-GFP cells were cocultured with the target cells at E:T ratio of approximately 1:2 for approximately 4 hours to 18 hours. When the interaction between SIRs and their target antigen results in activation of the NFAT pathway, GFP expression is induced. […] GFP expression was monitored by FACS analysis. The Jurkat-NFAT-GFP (parental) cells were used as control. The structure of different constructs can be determined based on their names. For example, the construct CD8SP-CD19-hu-mROO5-1-vL-[hTCRa-C SDVP]-F-F2A-Spe-IgHSP-Apa-CD20-vHH-2HCD25-G4S-CDl9-hu-mROO5-1-vH-Mlu-[hTCRb-KACIAH]-F-P2A-PAC has the following modules from 5′ to 3′ direction: a CD8 signal peptide (CD8SP), the CD19 targeting hu-mROO5-1 vL fragment (CD19-hu-mROO5-1), Xho1 cloning site, human TCRa constant chain containing CSDVP mutations (hTCRa-CSDVP), Furine cleavage site (F), F2A ribosomal skip sequence (F2A), SpeI site, human IgH signal peptide (IgHSP), Apa I restriction enzyme site, camelid CD20-2HCD25-VHH module targeting CD20, BamHI restriction enzyme site, Glycinex4-serine linker (G4S), BstI restriction enzyme site, CD19-hu-mROO5-1-vH fragment targeting CD19, Mlu I restriction enzyme site, human TCRb constant chain containing KACIAH mutations ([hTCRb-KACIAH]), Furine cleavage site (F), P2A ribosomal skip sequence and Puromycin resistance gene (PAC). The sequence of the other constructs in the table can be similarly determined from their names and by referring to the different Tables of this disclosure that provide the names and SEQ ID NO of the different modules. Alternatively, the composition and modular architecture of the different SAR constructs can be determined from their sequences by bioinformatics tools, including using nucleic acid and amino acids homology searches. A SAR is considered positive in the assay in case the SAR expressing Jurkat-NFAT-GFP cells show greater % GFP positive cells when cultured with the target cell line as compared to parental Jurkat-NFAT-GFP cells. The signs +/-, +, 2+ etc. after the name of the cell lines indicate the relative degree of positivity on the Jurkat-NFAT-GFP assay as measured by the % GFP positive cells after culture of the SAR expressing Jurkat-NFAT-GFP cells with that cell line above the % GFP cells observed in parental Jurkat NFAT-GFP cells serving as controls. In general, the number +/-, +, 2+, 3+, 4+, 5+ refer to approximately 5%, 10%, 20%, 30%, 40% and 50% GFP positive cells. The % of GFP induction in the above assay is dependent not only the relative strength of the SAR but also, among other factors, on the relative level of expression of the SAR in the JNG cells and the relative level of expression of the target antigen in the target cell line. To control for the difference in gene transduction efficiency of the different SAR constructs, the experiment was conducted with JNG cells transduced with SAR constructs co-expressing a drug resistance gene (e.g., puromycin or PAC) followed by drug selection to generate a stable population of SAR-expressing cells. […]

RAJI cells = test: JNG assay, co-culture with RAJI cells; settings: JNG cells expressing construct, co-culture with Raji
Outline: as §1

Row | Molecule | NFAT-GFP ASSAY: L363 (L363 cells) | NFAT-GFP ASSAY: Nalm6 (Nalm6 cells) | NFAT-GFP ASSAY: Raji (RAJI cells)
1 | 21986 (protein) MALPVTALLLPLALLLHAARPQLQLQESGPGLVKPSETLSLTCTVSGDSISSGDYYWGWIRQPPGKGLEWIGHIYYSGVTYYNPSLKSRVTISVDTSRNQFSLKLSSVTAADTAVYYCTREDSSNWRSRGQGTLVTVSSLEDLKNVFPPEVAVFEPSEAEISHTQKATLVCLATGFYPDHVELSWWVNGKEVHSGVCTDPQPLKEQPALNDSRYCLSSRLRVSATFWQNPRNHFRCQVQFYGLSENDEWTQDRAKPVTQIVSAEAWGRADCGFTSESYQQGVLSATILYEILLGKATLYAVLVSALVLMAMVKRKDSRGRAKRSGSGATNFSLLKQAGDVEENPGPTSMDWIWRILFLVGAATGAHSFEEVQLLESGGGLVQPGGSLRLSCAASGFTFSSYAMSWVRQAPGKGLEWVSSISGSGDYIYYADSVKGRFTISRDISKNTLYLQMNSLRAEDTAVYYCAKEGTGANSSLADYRGQGTLVTVSSTRIQNPDPAVYQLRDSKSSDKSVCLFTDFDSQTNVSQSKDSDVYITDKCVLDMRSMDFKSNSAVAWSNKSDFACANAFNNSIIPEDTFFPSPESSCDVKLVEKSFETDTNLNFQNLSVIGFRILLLKVAGFNLLMTLRLWSSRAKRSGSGVKQTLNFDLLKLAGDVESNPGPSRGHMTEYKPTVRLATRDDVPRAVRTLAAAFADYPATRHTVDPDRHIERVTELQELFLTRVGLDIGKVWVADDGAAVAVWTTPESVEAGAVFAEIGPRMAELSGSRLAAQQQMEGLLAPHRPKEPAWFLATVGVSPDHQGKGLGSAVVLPGVEAAERAGVPAFLETSAPRNLPFYERLGFTVTADVEVPEGPRTWCMTRKPGA | + (refer to approximately 5%, 10%, 20%, 30%, 40% and 50% GFP positive cells) | +/- (refer to approximately 5%, 10%, 20%, 30%, 40% and 50% GFP positive cells) | 
2 | 21987 (protein) MALPVTALLLPLALLLHAARPQLQLQESGPGLVKPSETLSLTCTVSGDSISSGDYYWGWIRQPPGKGLEWIGHIYYSGVTYYNPSLKSRVTISVDTSRNQFSLKLSSVTAADTAVYYCTREDSSNWRSRGQGTLVTVSSLEDLKNVFPPEVAVFEPSEAEISHTQKATLVCLATGFYPDHVELSWWVNGKEVHSGVCTDPQPLKEQPALNDSRYCLSSRLRVSATFWQNPRNHFRCQVQFYGLSENDEWTQDRAKPVTQIVSAEAWGRADCGFTSESYQQGVLSATILYEILLGKATLYAVLVSALVLMAMVKRKDSRGRAKRSGSGATNFSLLKQAGDVEENPGPTSMDWIWRILFLVGAATGAHSFEQVQLVESGGGLVQPGGSLRLSCAASGFTFTNHAMSWVRQAPGKGLELVSSISGNGRTTYYADSVKGRFTISRDISKNTLDLQMNSLRAEDTAVYYCAKDGGETLVDSRGQGTLVTVSSTRIQNPDPAVYQLRDSKSSDKSVCLFTDFDSQTNVSQSKDSDVYITDKCVLDMRSMDFKSNSAVAWSNKSDFACANAFNNSIIPEDTFFPSPESSCDVKLVEKSFETDTNLNFQNLSVIGFRILLLKVAGFNLLMTLRLWSSRAKRSGSGVKQTLNFDLLKLAGDVESNPGPSRGHMTEYKPTVRLATRDDVPRAVRTLAAAFADYPATRHTVDPDRHIERVTELQELFLTRVGLDIGKVWVADDGAAVAVWTTPESVEAGAVFAEIGPRMAELSGSRLAAQQQMEGLLAPHRPKEPAWFLATVGVSPDHQGKGLGSAVVLPGVEAAERAGVPAFLETSAPRNLPFYERLGFTVTADVEVPEGPRTWCMTRKPGA | + (refer to approximately 5%, 10%, 20%, 30%, 40% and 50% GFP positive cells) | +/- (refer to approximately 5%, 10%, 20%, 30%, 40% and 50% GFP positive cells) | 
3 | 22210 (protein) MALPVTALLLPLALLLHAARPACPQLGPYELWELSHGTGGGGSGGGGSGGGGSEFDIQMTQSPSSLSASVGDRVTITCKASDHINNWLAWYQQKPGQAPKLLIYGATTLETGVPSRFSGSGSGTDYTLTISSLQPEDFATYYCQQSWNTPWTFGQGTKLEIKRLEDLKNVFPPEVAVFEPSKAEIAHTQKATLVCLATGFYPDHVELSWWVNGKEVHSGVCTDPQPLKEQPALNDSRYCLSSRLRVSATFWQNPRNHFRCQVQFYGLSENDEWTQDRAKPVTQIVSAEAWGRADCGITSASYHQGVLSATILYEILLGKATLYAVLVSALVLMAMVKRKDSRGRAKRSGSGATNFSLLKQAGDVEENPGPTSATMDWIWRILFLVGAATGAHSGPQVQLQESGGGLAQAGGSLRLSCAASGRTFSMGWFRQAPGKEREFVAAITYSGGSPYYASSVRGRFTISRDNAKNTVYLQMNSLKPEDTAVYYCAANPTYGSDWNAENWGQGTQVTVSSGSGGGGSGGGGSGGGGSFEQVQLQQPGAELVKPGASVKMSCKASGYAFSSYWINWMKQKPGQGLEWIGQIYPGDGDTNYNGKFKGRATLTADTSSSTAYMQLSSLTSEDSAVYFCARSITTVVGCAMDYWGQGTSVTVSSTRIQNPDPAVYQLRDSKSSDKSVCLFTDFDSQTNVSQSKDSDVYITDKCVLDMRSMDFKSNSAVAWSNKSDFACANAFNNSIIPEDTFFPSSDVPCDVKLVEKSFETDTNLNFQNLSVIGFRILLLKVAGFNLLMTLRLWSSRAKRSGSGVKQTLNFDLLKLAGDVESNPGPSRGHMTEYKPTVRLATRDDVPRAVRTLAAAFADYPATRHTVDPDRHIERVTELQELFLTRVGLDIGKVWVADDGAAVAVWTTPESVEAGAVFAEIGPRMAELSGSRLAAQQQMEGLLAPHRPKEPAWFLATVGVSPDHQGKGLGSAVVLPGVEAAERAGVPAFLETSAPRNLPFYERLGFTVTADVEVPEGPRTWCMTRKPGA |  | + (refer to approximately 5%, 10%, 20%, 30%, 40% and 50% GFP positive cells) | 2+ (refer to approximately 5%, 10%, 20%, 30%, 40% and 50% GFP positive cells)
4 | 22209 (protein) MALPVTALLLPLALLLHAARPACPYINIYNAEPANPSEKNSPTQYAYGTGGGGSGGGGSGGGGSEFDIQMTQSPSSLSASVGDRVTITCKASDHINNWLAWYQQKPGQAPKLLIYGATTLETGVPSRFSGSGSGTDYTLTISSLQPEDFATYYCQQSWNTPWTFGQGTKLEIKRLEDLKNVFPPEVAVFEPSKAEIAHTQKATLVCLATGFYPDHVELSWWVNGKEVHSGVCTDPQPLKEQPALNDSRYCLSSRLRVSATFWQNPRNHFRCQVQFYGLSENDEWTQDRAKPVTQIVSAEAWGRADCGITSASYHQGVLSATILYEILLGKATLYAVLVSALVLMAMVKRKDSRGRAKRSGSGATNFSLLKQAGDVEENPGPTSATMDWIWRILFLVGAATGAHSGPQVQLQESGGGLAQAGGSLRLSCAASGRTFSMGWFRQAPGKEREFVAAITYSGGSPYYASSVRGRFTISRDNAKNTVYLQMNSLKPEDTAVYYCAANPTYGSDWNAENWGQGTQVTVSSGSGGGGSGGGGSGGGGSFEQVQLQQPGAELVKPGASVKMSCKASGYAFSSYWINWMKQKPGQGLEWIGQIYPGDGDTNYNGKFKGRATLTADTSSSTAYMQLSSLTSEDSAVYFCARSITTVVGCAMDYWGQGTSVTVSSTRIQNPDPAVYQLRDSKSSDKSVCLFTDFDSQTNVSQSKDSDVYITDKCVLDMRSMDFKSNSAVAWSNKSDFACANAFNNSIIPEDTFFPSSDVPCDVKLVEKSFETDTNLNFQNLSVIGFRILLLKVAGFNLLMTLRLWSSRAKRSGSGVKQTLNFDLLKLAGDVESNPGPSRGHMTEYKPTVRLATRDDVPRAVRTLAAAFADYPATRHTVDPDRHIERVTELQELFLTRVGLDIGKVWVADDGAAVAVWTTPESVEAGAVFAEIGPRMAELSGSRLAAQQQMEGLLAPHRPKEPAWFLATVGVSPDHQGKGLGSAVVLPGVEAAERAGVPAFLETSAPRNLPFYERLGFTVTADVEVPEGPRTWCMTRKPGA |  | 2+ (refer to approximately 5%, 10%, 20%, 30%, 40% and 50% GFP positive cells) | 2+ (refer to approximately 5%, 10%, 20%, 30%, 40% and 50% GFP positive cells)
